Source: patent US20100048677A1 (NEW YORK BLOOD CENTER, published 2010)

B1: DNAJC10 (DNAJ (HSP40) HOMOLOG, SUBFAMILY C, MEMBER 10) (other)
chain: DQDFYSLLGVSKTASSREIRQAFKKLALKLHPDKNPNNPNAHGDFLKINRAYEVLKDEDLRKKYDKYGEKGLEDNQGGQYESWNYYRYDFGIYDDDPEIITLERREFDAAVNSGELWFVNFYSPGCSHCHDLAPTWRDFAKEVDGLLRIGAVNCGDDRMLCRMKGVNSYPSLFIFRSGMAPVKYHGDRSKESLVSFAMQHVRSTVTELWTGNFVNSIQTAFAAGIGWLITFCSKGGDCLTSQTRLRLSGMLDGLVNVGWMDCATQDNLCKSLDITTSTTAYFPPGATLNNKEKNSILFLNSLDAKEIYLEVIHNLPDFELLSANTLEDRLAHHRWLLFFHFGKNENSNDPELKKLKTLLKNDHIQVGRFDCSSAPDICSNLYVFQPSLAVFKGQGTKEYEIHHGKKILYDILAFAKESVNSHVTTLGPQNFPANDKEPWLVDFFAPWCPPCRALLPELRRASNLLYGQLKFGTLDCTVHEGLCNMYNIQAYPTTVVFNQSNIHEYEGHHSAEQILEFIEDLMNPSVVSLTPTTFNELVTQRKHNEVWMVDFYSPWCHPCQVLMPEWKRMARTLTGLINVGSIDCQQYHSFCAQENVQRYPEIRFFPPKSNKAYHYHSYNGWNRDAYSLRIWGLGFLPQVSTDLTPQTFSEKVLQGKNHWVIDFYAPWCGPCQNFAPEFELLARMIKGKVKAGKVDCQAYAQTCQKAGIRAYPTVKFYFYERAKRNFQEEQINTRDAKAIAALISEKLETLRNQGKRNKDEL
notes: Endogenous protein in lysates of human UCB-derived megakaryocytes or HEK293 cells

Molecular target: αIIb (INTEGRIN, ALPHA 2B; PLATELET GLYCOPROTEIN IIB OF IIB/IIIA COMPLEX, ANTIGEN CD41) (human) (UniProt P08514)
Assay: αIIb complexes captured, mass spectrometry; No. Expts 1

#Peptides [peptides]	Molecule
4	FERM AND PDZ DOMAIN CONTAINING 1 (from UniProt Q5SYB0 1-1578)
5	CORTACTIN (from UniProt Q14247 1-550)
3	KIAA0895 PROTEIN (from UniProt Q8NCT3 1-520)
2	ATP SYNTHASE, H+ TRANSPORTING, MITOCHONDRIAL F1 COMPLEX, ALPHA SUBUNIT 1, CARDIAC MUSCLE (from UniProt P25705 44-553)
4	EUKARYOTIC ELONGATION FACTOR-2 KINASE (from UniProt O00418 2-725)
5	CULLIN 5 (from UniProt Q93034 1-780)
6	RB1-INDUCIBLE COILED-COIL 1 (from UniProt Q8TDY2 1-1594)
8	CHAPERONIN CONTAINING TCP1, SUBUNIT 4 (DELTA) (from UniProt P50991 2-539)

Molecular target: αIIb (INTEGRIN, ALPHA 2B; PLATELET GLYCOPROTEIN IIB OF IIB/IIIA COMPLEX, ANTIGEN CD41) (human) (UniProt P08514)
Assay: αIIb complexes captured, mass spectrometry; No. Expts 2

#Peptides [peptides]	Molecule
68	DEAH (ASP-GLU-ALA-HIS) BOX PO… 15 (from UniProt O43143 1-795)
26	HETEROGENEOUS NUCLEAR RIBONUCLEOPROTEIN L (from UniProt P14866 1-589)
14	FILAMIN A, ALPHA (ACTIN BINDING PROTEIN 280) (from UniProt P21333 2-2647)
30	DYNAMIN BINDING PROTEIN (from UniProt Q6XZF7 1-1577)
11	HEAT SHOCK 70 kDa PROTEIN 8 (from UniProt P11142 2-646)
52	TUBULIN, BETA (from UniProt P07437 1-444)
16	ALDEHYDE DEHYDROGENASE 18 FAMILY, MEMBER A1 (from UniProt P54886 1-795)
34	5′-NUCLEOTIDASE DOMAIN CONTAINING 2 (from UniProt Q9H857 1-520)
20	CHAPERONIN CONTAINING TCP1, SUBUNIT 2 (BETA) (from UniProt P78371 2-535)

Molecular target: αIIb (INTEGRIN, ALPHA 2B; PLATELET GLYCOPROTEIN IIB OF IIB/IIIA COMPLEX, ANTIGEN CD41) (human) (UniProt P08514)
Assay: αIIb complexes captured, mass spectrometry; No. Expts 3

#Peptides [peptides]	Molecule
7	SHROOM3 F-ACTIN BINDING PROTEIN (from UniProt Q8TF72 1-1996)
83	GLUTAMATE DEHYDROGENASE 1 (from UniProt P00367 54-558)
62	KIAA1529 (from UniProt Q9P1Z9 1-1701)
20	THIOREDOXIN DOMAIN CONTAINING 4 (ENDOPLASMIC RETICULUM) (from UniProt Q9BS26 30-406)
22	PLASMINOGEN (from UniProt P00747 20-810)

Molecular target: αIIb (INTEGRIN, ALPHA 2B; PLATELET GLYCOPROTEIN IIB OF IIB/IIIA COMPLEX, ANTIGEN CD41) (human) (UniProt P08514)
Assay: αIIb complexes captured, mass spectrometry; No. Expts 4

#Peptides [peptides]	Molecule
65	ASPARTYL-TRNA … (from UniProt P14868 1-501)

Molecular target: T1, mature αIIbβ3 complex (human, UniProt P08514 32-887; P08514 891-1039; P05106 27-788)
T1 construct: Endogenous, from megakaryocyte lysates
Assay: co-immunoprecipitation with conformation-specific mAb M148, immunoblot for DNAJC10

binding result	Molecule
no binding	B1

Molecular target: αIIbβ3 (human) (UniProt P08514)
Assay: antibody staining of UCB-derived megakaryocytes, after thrombin receptor-activating peptide

percentage of UCB cells recognized [%]	Molecule
16	PAC1, an activation-dependent, ligand-mimetic anti-αIIbβ3 monoclonal antibody

Molecular target: αIIbβ3 (human) (UniProt P08514)
Assay: antibody staining of UCB-derived megakaryocytes, before thrombin receptor-activating peptide

percentage of UCB cells recognized [%]	Molecule
3	PAC1, an activation-dependent, ligand-mimetic anti-αIIbβ3 monoclonal antibody
